The values below come from patent US20230110188A1 (ARGENX IIP, published 2023).

Positions count from the first letter of the chain named.

As a reminder, the koff is the first-order rate constant of dissociation. A word on the Kd: it is a measure of binding affinity in units of concentration.

For assay [1], the target named is T1, Human MuSK (R&D Systems, cat. 10189-MK, histidine tag) (human, UniProt O15146 24-495).
T1 construct: Bought protein; also called human monomeric MuSK-6xhis; not shown: histidine tag (6xhis)
T1 sequence: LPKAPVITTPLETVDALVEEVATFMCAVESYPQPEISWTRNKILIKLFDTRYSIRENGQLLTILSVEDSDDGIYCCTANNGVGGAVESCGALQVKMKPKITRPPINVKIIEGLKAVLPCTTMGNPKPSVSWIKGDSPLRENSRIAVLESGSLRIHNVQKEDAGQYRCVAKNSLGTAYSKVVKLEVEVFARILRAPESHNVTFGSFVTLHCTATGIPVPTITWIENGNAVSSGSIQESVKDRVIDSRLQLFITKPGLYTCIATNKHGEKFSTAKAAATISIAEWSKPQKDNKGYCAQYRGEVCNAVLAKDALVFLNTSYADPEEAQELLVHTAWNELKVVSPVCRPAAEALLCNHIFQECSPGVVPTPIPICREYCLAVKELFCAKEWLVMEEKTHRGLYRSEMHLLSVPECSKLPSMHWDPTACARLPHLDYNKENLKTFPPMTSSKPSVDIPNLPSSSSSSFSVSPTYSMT
Put plainly: SPR (Biacore), antibody captured on anti-hFc chip; 10 nM; dissociation pH 7.4. From the text: (§1) In order to study pH dependent binding of our antibodies to MuSK, the Biacore was used with the same setup as described in the paragraph entitled “Binding affinity for mouse, human and rhesus monkey recombinant MuSK in Biacore”. 6. […] For the other antibodies there is no real difference observed between pH 7.4 and 5.5.
(In general: In SPR one partner is held on a chip, and binding of the other changes the refractive index at the surface.)

For assay [2], the target named is T1, Human MuSK (R&D Systems, cat. 10189-MK, …). Put plainly: SPR (Biacore), antibody captured on anti-hFc chip, MuSK injected 0.3125-10 nM. The protocol: (§2) The affinity of 3D10a, 4D3, 3F6c and 3D9b for human, rhesus monkey and mouse MuSK was tested in Biacore using the setup shown in FIG. 3. […] The affinities are very high keeping in mind that MuSK was added here in solution, allowing only for monovalent binding (affinity versus avidity).

The target of assay [3] is T2, Rhesus monkey MuSK (recombinant, streptavidine and Flag tag) (rhesus monkey, UniProt O15146 24-495 (human entry)).
T2 construct: also called Rhesus MuSK; not shown: streptavidine and Flag tag
T2 chain: T1 sequence with I144T, I278V, V342L, I355V, V389A, L437P
The description is as above. The protocol: as §2

Assay [4] deals with T3, Mouse MuSK (recombinant, streptavidine and Flag tag) (mouse, UniProt Q61006 22-494).
T3 construct: not shown: streptavidine and Flag tag
T3 sequence: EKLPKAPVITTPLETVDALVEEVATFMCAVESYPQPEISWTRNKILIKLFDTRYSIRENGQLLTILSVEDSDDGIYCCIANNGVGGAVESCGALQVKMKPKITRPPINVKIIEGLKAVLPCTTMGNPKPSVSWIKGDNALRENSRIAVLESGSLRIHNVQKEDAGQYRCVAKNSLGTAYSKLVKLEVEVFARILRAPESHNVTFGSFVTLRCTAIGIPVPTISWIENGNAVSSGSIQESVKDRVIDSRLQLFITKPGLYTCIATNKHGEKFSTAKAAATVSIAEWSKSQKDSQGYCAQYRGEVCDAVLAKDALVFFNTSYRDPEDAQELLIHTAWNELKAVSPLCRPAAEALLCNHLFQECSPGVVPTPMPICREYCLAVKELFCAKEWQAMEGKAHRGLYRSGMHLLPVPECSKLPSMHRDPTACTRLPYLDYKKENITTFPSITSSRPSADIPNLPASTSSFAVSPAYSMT
The description is as above. The procedure: as §2

Assay [5] deals with T4, human monomeric MuSK FLAG streptavidin (in house produced, batch 27-6-2019) (human, UniProt O15146 24-495).
T4 construct: also called full length MuSK; not shown: FLAG and streptavidin tags
T4 sequence: T1 sequence
Put plainly: epitope binning ELISA (coated anti-MuSK Fab, MuSK, IgG, anti-Fc HRP); competitor: 3F6c. The protocol: (§3) For epitope binning—An ELISA plate was coated at 1 μg/ml of the anti-MuSK Fabs and incubated overnight at 4° C. Next, the plate was wash with PBS followed by blocking with 1% casein in PBS for one hour. After washing the plate, 1 μg/ml of human monomeric MuSK (in house produced, batch 27-6-2019) was incubated for one hour at RT. The plate was washed and anti-MuSK antibodies at 0.3-10 μg/ml were added to the plate and incubated for one hour at RT. After washing the plate, detection antibody (goat anti-human Fc HRP (Jackson Immunoresearch cat. 109-035-098)) was added at 5000 fold dilution in PBS 0.1% casein. The plate was incubated for one hour at RT and washed with PBS-T. TMB was added and the reaction was stopped by adding H2504. […]
(§4) For the epitope binning ELISA, a plate was coated with anti-MuSK Fab and human monomeric MuSK was added after blocking the plate. Next the different antibodies were added and allowed to bind.
On the technique in general: An ELISA detects its analyte on a solid surface through an enzyme-linked reagent.

In assay [6] the target is T4, human monomeric MuSK FLAG streptavidin …. Put plainly: epitope binning ELISA (coated anti-MuSK Fab, MuSK, IgG, anti-Fc HRP); competitor: 3D10a. The protocol:
as §3, §4

The target in assay [7] is T1, Human MuSK (R&D Systems, cat. 10189-MK, …). Put plainly: SPR (Biacore), antibody captured on anti-hFc chip; 5 nM; dissociation pH 7.4.
Description: as §1

For assay [8] the target is unchanged. As to the kind of experiment: SPR (Biacore), antibody captured on anti-hFc chip; 5 nM; dissociation pH 5.5.
Description: as §1

B1: 3D10a (antibody, human IgG1, kappa, L234A L235A, V domains shown)
VH: EVQLVESGGGLVKPGGSLRLSCAASGFTFSASTMAWVRQAPGKGLEWVSSVSGDSHHIYYADSLKGRFTISRDNAKNSLYLQMNSLRAEDTAVYYCARERLLRLGVGFDSWGQGTLVTVSS
VL: DIQMTQSPSSLSASVGDRVTITCRASQRISGFVNWYQQKPGKAPKLLIYAASTLQSGVPSRFSGSGSGTDFTLTISSLQPEDFATYYCQQSYSPLYTFGQGTKLEIKR
Turning to B1, the figures for the off-rate constant (koff) in assay [1], in assay [7] and in assay [8] were 0.00014 s⁻¹, 0.00015 s⁻¹ and 0.0001 s⁻¹, respectively. Also, the Kd in assay [2] worked out at 0.16 nM; in assay [3] it was 0.21 nM; in assay [4], 0.1 nM. The entries for the “OD 450 nm” value in assay [5] and in assay [6] were 0.162 OD and 0.049 OD, respectively.

B2: 4D3 (antibody, human IgG1, kappa, L234A L235A, V domains shown)
VH: B1 VH with A31S, S32Y, A35T, V51I, G53S, D54G, S55G, H57Y, A61T, S110F
VL: B1 VL with R28S, F32Y, V33L, P94A
Regarding B2, the off-rate (koff) is 0.00013 s⁻¹ in assay [1], 0.00014 s⁻¹ in assay [7] and 0.00018 s⁻¹ in assay [8]. The dissociation constant (Kd) in assay [2] is 0.26 nM; in assay [3], 0.31 nM; in assay [4], 0.17 nM. For the same molecule, the “OD 450 nm” value was determined as 0.1 OD in assay [5] and 0.008 OD in assay [6].

B3: 3F6c (antibody, human IgG1, kappa, L234A L235A, V domains shown)
VH: EVQLVESGGGLVKPGGSLRLSCAASGFTFSSYTMDWVRQAPGKGLEWVSSIGSNGDYIYYADSVRGRFTISRDNAKNSLYLQMNSLRAEDTAVYYCARGQLAVAGTHFDYWGQGTLVTVSS
VL: B1 VL with R28K, I29V, S30N, G31K, F32Y, Y96S
B3: the values for the koff in assay [1], in assay [7] and in assay [8] were 6e-05 s⁻¹, 7e-05 s⁻¹ and 0.0002 s⁻¹, respectively. The Kd in assay [2] is 0.05 nM; in assay [3] it was 0.13 nM; in assay [4], 0.03 nM. Also, the “OD 450 nm” value in assay [5] was 0.156 OD; in assay [6], 0.057 OD.

B4: 3D9b (antibody, human IgG1, kappa, L234A L235A, V domains shown)
VH: EVQLVESGGGLVKPGGSLRLSCAASGFTFSTYTMHWVRQAPGKGLEWVSSISSRSAYKYYADSVKGRFTISRDNAKNSLYLQMNSLRAEDTAVYYCARDFFQLGPPRFDSWGQGTLVTVSS
VL: B1 VL with G31S, V33L, A50G, T53N, L95S
As for B4, the koff is 8e-05 s⁻¹ in assay [1], 8e-05 s⁻¹ in assay [7] and 4e-05 s⁻¹ in assay [8]. Besides, the results for the Kd in assay [2], in assay [3] and in assay [4] were 0.17 nM, 0.28 nM and 0.14 nM, respectively. The “OD 450 nm” value in assay [5] worked out at 0.186 OD; in assay [6] it was 0.06 OD.
